Results on 1 molecule are retold here after US20160237157A1.

In experiment [1] the target is human FGFR4-FGFR1 chimeric construct (hFGFR4/R1) on BaF3 cells (human) (UniProt P11362). The experiment in a line: cell-based or functional assay.
For experiment [2], the target named is T1, human FGFR4 (soluble, Part B: SPR and FGFR4 ELISA) (human) (UniProt P22455).
T1 sequence: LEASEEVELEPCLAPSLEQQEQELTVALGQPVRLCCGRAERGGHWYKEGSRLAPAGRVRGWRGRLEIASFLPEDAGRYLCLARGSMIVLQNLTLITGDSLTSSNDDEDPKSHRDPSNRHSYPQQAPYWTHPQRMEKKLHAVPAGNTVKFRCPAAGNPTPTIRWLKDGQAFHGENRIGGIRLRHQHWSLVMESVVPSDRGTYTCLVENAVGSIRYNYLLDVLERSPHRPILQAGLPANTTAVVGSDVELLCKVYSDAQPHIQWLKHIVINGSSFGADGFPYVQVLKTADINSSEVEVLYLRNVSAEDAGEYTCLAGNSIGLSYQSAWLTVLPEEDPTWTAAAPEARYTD
Briefly: SPR (BIAcore-2000), antibody immobilized, human FGFR4 injected. In general terms: SPR reads the build-up and loss of mass on a sensor chip optically.

Experiment [3] concerns the target T2, FGFR4 (solid phase receptor-binding assay) (Homo sapiens (Human)) (UniProt P22455).
T2 sequence: T1 sequence
The experiment in a line: solid phase receptor-binding assay; LD1 titrated, inhibition of FGF19 binding to FGFR4.

Experiment [4] has as its target T2, FGFR4 (solid phase receptor-binding assay) (Homo sapiens (Human)). Briefly: solid phase receptor-binding assay; LD1 titrated, inhibition of FGF1 binding to FGFR4.

B1: chimeric LD1 (chLD1) (antibody, from a related filing, human IgG1, V domains shown)
VH: EVQLQQPGAVLVRPGTSVKLSCKASGYTFTNHWMNWVKQRPGQGLEWIGMIHPSDSETTLDQKFKDKATLTVDKSSSTAYMQLNRPTSEDSAVYYCTRGDISLFDYWGQGTTVTVSS
VL: DIQMTQTTSSLSASLGDRVTITCRTSQDISNFLNWYQQKPDGTFKILISYTSRLHSGVPSRFSGSGSGTDYSLTISTLEQEDFATYFCQQGNALPYTFGGGTKLEIE
What is called Kd is the concentration at which binding is half-saturated. As usually defined, the koff is the rate constant with which the complex falls apart. By IC50 is commonly meant the midpoint of a concentration-inhibition curve. Low readings indicate greater potency in that assay, high ones weaker potency in that assay. As for B1, the inhibition of FGF1-stimulated proliferation of BaF3/FGFR4/R1 cells (5 nM FGF1), IC50 in experiment [1] came to 17400 pM. Moreover, in experiment [2], the Kd stood at 450 pM and the koff was determined as 0.000173 s⁻¹. In experiment [3], the IC50 came out at 102 pM. The molecule further came in with an IC50 in experiment [4] of 93 pM.
